# Assay results: paper PMC12669651
# B1: FOXO3: S296V (protein)
# parent chain: MAEAPASPVPLSPLEVELDPEFEPQSRPRSCTWPLQRPELQASPAKPSGETAADSMIPEEDDDEDDEDGGGRASSAMVIGGGVSSTLGSGLLLEDSAMLLAPGGQDLGSGPASAAGALSGGTPTQLQPQQPLPQPQPGAAGGSGQPRKCSSRRNAWGNLSYADLITRAIESSPDKRLTLSQIYEWMVRCVPYFKDKGDSNSSAGWKNSIRHNLSLHSRFMRVQNEGTGKSSWWIINPDGGKSGKAPRRRAVSMDNSNKYTKSRGRAAKKKAALQAAPESADDSPSQLSKWPGSPTSRSSDELDAWTDFRSRTNSNASTVSGRLSPILASTELDDVQDDDGPLSPMLYSSSASLSPSVSKPCTVELPRLTDMAGTMNLNDGLAENLMDDLLDNIALPPSQPSPPGGLMQRGSSFPYTAKSSGLGSPTGSFNSTVFGPSSLNSLRQSPMQTIQENRPATFSSVSHYGNQTLQDLLASDSLSHSDVMMTQSDPLMSQASTAVSAQNARRNVMLRNDPMMSFAAQPTQGSLVNQNLLHHQHQTQGALGGSRALSNSVSNMGLSDSSSLGSAKHQQQSPASQSMQTLSDSLSGSSLYSASANLPVMGHDKFPSDLDLDMFNGSLECDMESIIRSELMDADGLDFNFDSLISTQNVVGLNVGNFTGAKQASSQSWVPG
# Tests used:
# [1] = O-GlcNAc at S296
# [2] = cycloheximide chase, Western blot, Foxo3-KO BMSCs; settings: glycan lost; control: wild-type Foxo3
# ROS detection in BMSCs = settings: glycan lost; control: wild-type Foxo3
protein,measurement,setting,value
B1,degradation_or_half_life,[1],"decreases, half-life from 24 hours to 12 hours"
same,"degradation_or_half_life, half_life",[2],"decreases, 12 vs 24"
same,other: cellular ROS level,ROS detection in BMSCs,increases
